Test: label from the status in PepcDB records

Sequence: MIDTHIHSDTRGLEDLELMAMCLDGVITLAHDPFEMKNIKVWEAHVEKLLINELERAKKVGLNLFICVGMHPRAIPPEIDEALDKIKSYINYNSRVVGIGEIGLEKATKEEKEVFIKQLLLAEELNMPAVVHTPRRNKEEVTKIILDEISTLNLKNRDIVIEHCNKETTKWVLDEEFYVGLTIQPGKLTPLEAVEIVKEYKDFADKILLNSDCSSNASDVLAVPRTVLKMKINGIEKDVIYKVAHKNAVNLFGLDI
- protein production: failed

Sequence: MIDTSIFQDKTAVYYTLGCKLNFSETSTIGKVLREAGVRTVRKGEKADICVVNTCSVTEVADKKCRQAIHRLVKQHPGAFVVVTGCYAQLKPDAVAKIEGVDVVLGAEQKKDLLQYLGDLRKHESGEAHTSALKDIRSFAPSCSRGDRTRFFLKVQDGCDYYCSYCTIPFARGRSRNGSIASLVEQARQAAAEGGKEIVLTGVNIGDFGKSTGETFFDLVKALDDVECIERYRISSIEPNLLTDEIIEFVSRSKRFMPHFHIPLQSGSDEVLKLMRRRYDTALFASKVKRIKEVMPDAFIGVDVIVGTRGETEEYFEQAYRFIQSLDVTQLHVFSYSERPGTQALKIEHVVSSEEKHRRSRLLLDLSDEKTRAFYARHIGQTMPVLLERSKPGTPMHGFTPNYIRVEVPHDDALDNQVIPVRMGDFNEEGTALSGAFGDK
- protein production: failed

Sequence: MIEEERNNYSVFHGLWTLASRELKKWYKAPVILLLSLIQPIFWIGIFGKAMNLGSIFTETTFNIPGLTIPKQVLDQIGLEILKQTFGTTDYFSFLAAGMLSFIVLFTSMQSGMSIVWDRRLGVLDRILTTPVPRGNIIIGKVLSAVIRSLVQATIVLVVAVLLGMTFAPEINPLDFLGVYAALFLMSFGLSSLFLMLALRATSWESQMAIMNLLNLPLLFTSNAFYPVKSMPYWLKPVAYINPLTYSNGVARGMLLGISTNLAIDFLYLGLFAIILSTIGIVLSWKYLSK
- protein production: failed

Sequence: MIEESVMLRQHNLRLRKYDYVLGRLFVALPIGGLVVAVLLLFADWRVGRFELAMCLAMYLFTMMGIEVGFHRCFAHRAFKAGTGLQWVLAVAGSMGGHGPLIWWVTTHRRHHRFVDTDQDPHTPNKDLRGPWRNFKSFLYGYVGWTMDTDVKLQEGWQRYGVDLYKNSILFKVHARFALIALLGLLLPTVAGALFHRTAEGALLGLLWGGLVPICLTQHLFWMINAFGHRIGAKPFSGRIVGDSRNCWWLALPTFGQGWHNNHHADPGCATTRKTWWQLDPGAWLIRLFERLGWASAVKWK
- protein production: failed

Sequence: MIEFTALDDLSLLRESVSLECKLAQGRDGKGALPDDFWPTYSAMANTDGGIVILGVRERKGQFEVAGIENPDKLRTELFNHLNNRQKVSVNLLRDEDVRAWPVEGKTLLVVEIPRARRQQRPVYLRGNPLGGHTYRRLHEGDRPLPDE
- protein production: failed

Sequence: MIEGIIEEIRTNGSFLITTHENPDGDAVGSSLALAGYLRRLGKDVTIHFCDPVPDLYAFLPLAEEVTRTVPDRDYDICFVLDVGEFRRAGKQIAECKRIKKFINIDHHLTSDNFGFINYIDPKAAATGILVHRIITGAGDVVGYETALCLYTAIITDTGSFRYSNANPEAFAIAGELVSTGINTWSIAEKLYESQPRERLELLALALSTLTISPRGEYASITVTLDMYNKTGASAELTDGFVNYPRSIRGVEVSVFFREINPGLFKVGFRSKGKIDVSRIAAAFGGGGHHNAAGATMNGSLEGIKATLFSHLESTLLEHHHHHH
- protein production: not failed

Sequence: MIEGKTLVVNPFIGGSAKNITDEQYISILKKIKEKMPDLNIIITSYTTDEERTEKLCKDIGKDKIFAFSNGASILNTASIIDRADVYFGASTGPTHIAGALGKKIVAIYPHKKTQSPTRWGVLGNSNVRYIIPDENNPNEDYKLEHHHHHH
- protein production: failed

Sequence: MIEHIIDIIIVLLAKLGYAGTFFGMLFESACIPIPSEIVLPFGGYLSSSSAPQGHTLNLVLVIISATLGGTVGSILAYTIGAKGGRILVYKYASKLHLSKEKIEKSEAVFDKYGDKIIFLSRLLPIIRTFISLPAGIAKMDFTKFTIYTLVGSAIWSTLLVYAGFVMGKNWESIRSYFHIADYLVAGAIILFIVYRIIVYIKKKTKK
- protein production: failed

Sequence: MIEKIIDLSVKNKLLTTLVTLLIFLASLWAIKSVRLDALPDLSPAQVVVQITYPNQSPKIVQEQVTYPLVSTFMSIANIDTVRGISSYESGLIYIIFKDGVNLYWARDRVLEQLNRVSNLPKDAKVEIGSDSTSIGWAYQYALSSDSKNLSDLKVLQDFYYRYALLGVDGVSEVASVGGFVKDYEVTLQNDSLIRYNLSLEQVANAIKNSNNDTGGGVILENGFEKIIRSHGYIQSLKDLEEIVVKKEGAIPLKIKDIASVRLTPKPRRGAANLNGDKEVVGGIVMVRYHADTYKVLKAIKEKIATLQASNPDVKITSVYDRSELIEKGIDNLIHTLIEESVIVLVIIAIFLLHFRSALVVIITLPLSVCISFLLMRYFNIEASIMSLGGIAIAIGAMVDAAIVMVENAHKHLQHIDVKDNAQRVNGIIEGVKHVGGAIFFALMIIVVSFLPIFALTGQEEKLFAPLAYTKTFAMLVGALLSITMVPILMVWLIKGRILEESKNPINAFFMKIYGVSLNVVLKFRYAFLIASVLGLGGLYVAYKKLNWEFIPQINEGVVMYMPVTINGVSIDTALEYLKKSNSAIKRLDFVKQVFGKVGRANTSTDAAGLSMIETYIELKPQNEWKEKLSYKEVRDKLEKTLQLKGLTNSWTYPIRGRTDMLLTGIRTPLGIKLYGNDTDKLQELAILMEQQLKTLKESLSVFAERSNNGYYITLDLNDENLARYGINKKAVLDAIKFALGGATLTTMIKGVENYPISLRLEDTERNTIEKLKNLYIKTAYNYMPLRELARIYYDNSPAVLKSEKGLNVNFIYIVPQNGISSDAYRQLAQKALEKIQLPNGYYYEFSGESQYLEEAFKTLQYIVPVSVFIIFILIVFALKNLTNSLLCFFTLPFAFLGGLIFMNLMGFNMSVAALVGFLALLGVASETAIVMIIYLEDAFQKFIKTPLKEQNSTTLKEAIMHGAVLRVRPKLMTFFSILASLIPIMYSHGTGSEIMKSIAAPMLGGMISSVVLTLFIIPTAYFVIKNAGIKSNQT
- protein production: failed

Sequence: MIEKKKNRSKLKREAILAAAKKAYQDDGVQNTSMDKLASLAQVSKRTVYNHFSSKEALVMELLSDLWQNSMADIDIQFSENVSIQDQLERLLLAELNVIGAQSYLDLAKVAFGHFFYKPDELQLQVEKMAEQETALSRWLQLMMDTKKLTIEDKHKAGVQLHSLLKGSAFWPQLVGMRAVLSSEEKEQLVTETADMFLSRYLKR
- protein production: not failed

Sequence: MIELEVVIRTVASFGLLLIAERILGKQTISQMTIFDFIAAITLGAIAAGLAYNTSIKPHNMAISFSIFVLTIFLISFLSIKNRKLRKFFAGDPTVLIQNGKILESNMRKMRYTLDYLNQQLREKEIFNIEEVLFAILETNGQLTVLRKPQFRHVTKQDLMIAVNQEQRLPIELIMDGEIIENNLKQNRLTESWLLEELRKRDIKVKETVYAVLLGNGDIYVDQYKDHISVPMDKE
- protein production: failed

Sequence: MIELRNELPGGEVHAAWHLRYAGHDFFVKCDEREMLRGFTAEADQLELLSRSKTVVVPKVWAVGSDRDYSFLVMDYLSPRPLDAHNAFILGQQLARLHQWSDQPQFGLDFDNALSTTPQPNTWQRRWSTFFAEQRIGWQLELAAEKGITFGNIDAIVEHVQQRLASHQPQPSLLHGDLWSANCALGPDGPYIFDPACYWGDRECDLAMLPLHTDQPPQIYDGYQSVSPLPLDFLDRQPIYQLYTLLNRARLFGGQHLATAQKAMDRLLAVLEHHHHHH
- protein production: failed

Sequence: MIEQPSPKVYDELLSIWEEAVRSTHHFLTEADIQFYKPLIRHEYLAAVRLYIIREDSGTIAAFMGLSNDCIEMLFVRPNAHGHGYGSRLVEFAIRKKRIYKVDVNEQNAAALGFYLHMGFETTGRDALDATGKPFPILHLQIPPIRLRK
- protein production: failed

Sequence: MIETPSLVDQYCHGVLRTELGLGTFEAQLARTEGPPAPGTTLFDTQTGFAVRRWCPPLLGLEPHCPPARYLARRRELGVMEADRRLLRGSGITTYLVDAGLPGDLTGPTEMATAADADTREIVRLELLAEQVADTSGTVESFLANLAEAVHGAAVNAVAFTSVAGVRHGLALAPEPPGPGEVRGAAARWLTGREVGGELSDPVLLRHLLWIAVASGLPLQLHAGLGEPGLRIDRTDPVLLTDFVRTTAGLGTDLVLLHGYPYHRHAAHLAGVFPHVYADSGAALVRTGARAATVLAEILELAPFGKILFSSGAQGLPELHVVAARLFREALGRVLGTWVAEGAWSPGDAQRVAAMIASGNAARVYGLE
- protein production: failed

Sequence: MIFERIKSEGLAHLSYFVGSGNEAIVIDPRRDCQIYFDIARREGMKIKYIFETHRNEDYVIGSLELKELTDAEIYHGKGVDFKYGIFVSDGQEFNFGSMKLTALHTPGHTDESMSYALTYPESGKAPLMVFTGDALFVGDVGRTDLYGPEEIPRMAANLYESIFNKILPLGDGVILCPAHGAGSLCGGAISKREYSTLGLERIQNPALQRTDKEEFIKFKLEEKLEFPPYFKKMEQYNLQGPPLLKGLPVPELLFPKEFVKEMEKGAMVVDTRMPHSFGGAHIKGSYGIWLKGLPYYAGWVLPYDKPILLVLEEKDQLETAVSYLVRIGYDSIAGFLNGGISSWYMKALPVESLNLISVQSLKDKIEKNEEMVILDVRRDEEWEKGHIEGARHVYVGHLEENLDKVPRNSPIIVYCDSSRRSNIAASILKKKGYDMVYNVLGSMTAWKNAGYKVVKLEHHHHHH
- protein production: not failed

Sequence: MIFRTFIVVLCLIPCFSYGSEAYLNAAEKQFESLLELLPEDEKREWKHRDFEEVMDYSNKLDELKKTAEYIRNQSDSSDVDGILAFSFLADAIQYELDLKTSLVNDLGLHLYRSYEINNVNPVRKAIEAELVALQNASGALQLQSKLTKYFKLQREIAELSKNPPTKMTLEYRPQDNAWDSDPELVKKYVLFDWLSALSKLKEKLYELQKIKDSFASFNYLRLKDPIAFVSLGAQLAILLVAVAGYLISYTEKPSIKVVASLVAASMLLSVFLVFVSSSTIFNLIVQASIPSLFIAYWVYRNSHNKKVQPTADGRG
- protein production: failed

Sequence: MIFSPDAFTGSILAVEGIRDAAVILNGPTGCKLYHSFLSDRQFPRESSHDPLAFQDEFYFGQPRVPCTCLDGEDFIQGSLEKFERALAAVAAKEKGLLVVINSPGASLVGDDLENVIKNAGLQNRCFVVEKTGFSLPAAQGFENTTLTLLEHLKLRSLFRPHNRSEFPKKVNLIGLSLLHKHWEGSVAEMKRLLSFLGLEVGAILLAGTSLDEIRESNNAACNIVLFPEYGRRVAEWYRKHFGIPAVFSPLGAPLGFDANESLLREVAAILNIDPAPALAEVREARQTSYRQISRFHSFSGLPKGASFSIQAESSLVFPLTHWLYSYLGMAPYAVKLLPGSDPEMARSLKSFLTEKGFCEAWDRDLSLESVDIAFADSFTLQLLKAKGCCKAGIEISLPDRGYIHFIPKTYLGVSGALFLLEEIINGLRST
- protein production: failed

Reference: a protein production outcome set (Wang et al. 2014)
